Source: the nanobody polyreactivity screen of Harvey et al. (2022)

assay: yeast display, Sf9 membrane polyspecificity reagent, FACS + sequencing; frameworks hold sequencing errors
How it was run: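 Synthetic nanobody libraries on Saccharomyces cerevisiae BJ5465 were galactose-induced for 36–48 hours, stained 1 hour at 4 °C with 10% biotinylated, detergent-solubilized Sf9 membrane reagent and enriched on streptavidin microbeads. FACS then separated cells into low and high (top ~1%) gates by anti-HA (expression) and streptavidin (reagent binding) fluorescence. Genes were colony-PCR amplified, MiSeq 2 × 250 sequenced and CDR-length filtered. A clone's polyreactivity label is that of its gate of origin.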

Sequence	polyreactivity (PSR sort gate)
QVQLVESGGGLVQSGGSLRLSCAASGRTFYDNVMGWYRQAPGKERELVAAISSGGSTNYADSVKGRFTISRDNAKNTVYLQMNSLKPEDTAFYYCATIGGGGWAYEYWGQGTQVTVSS	low polyreactivity
QVQLVESGGGLVQSGGSLRLSCAASGRTFYGNAMGWYRQAPGKERELVAAITSSGGSTYYADSVKGRFTISRDNAKNTVYLQMNSLKPEDNAVYYCAAYTYLEDFESWGQGTQVTVSS	high polyreactivity
QVQLVESGGGLVQSGGSLRLSCAASGRTLGYNAMGWYRQAPGKERELVASINSGVSTNYADSVKGRFTISRDNAKNTVYLQMNSLKPEDTAVYYCAAEKYGRGDGREGWEYDYWGQGTQVTVSS	low polyreactivity
QVQLVESGGGLVQSGGSLRLSCAASGSIFDGYAMGWYRQAPGKERELVAAISKGGTRTYYADSVKGRFTISRDNAKNTVYLQMNSLKPEDTAVYYGNAYFRREPDDGDYDYWGQGTQVTVSS	high polyreactivity
QVQLVESGGGLVQSGGSLRLSCAASGSIFTPYSMGWYRQAPGKERELVAGISYRGGTTYYADSVKGRFTISRDNAKNTVYLQMNSLKPEDYAVYYCAAAASSPGGWFYYWGQGTQVTVSS	high polyreactivity
QVQLVESGGGLVQSGGSLRLSCAASGSTFSINAMGWYRQAPGKERELVAAITWRGVRTYYADSVKGRFTITRDNAKNTVYFQMNSLKPEDTAVYYCAADVVVAGHPGFDYWGQGTQVTVSS	high polyreactivity
QVQLVESGGGLVQSGGSLRLSCAASGYIFGVNAMGWYRQAPGKERELVAAIDSGSRTYYADSVKGRFTISRDNAKNTVYLQMNSLIPEDTAVYYCATNFYVSYGGGYYTIWYDYWGQGTQVTVSS	low polyreactivity
QVQLVESGGGLVQSGGSLRLSCAASGYIFRFNAMGWYRQAPGKEREMVAVITSGARTYYADSVKGRFTISRDNAKNTVYLQMNSLKPEDTAVYYCNAGARRYLYDYWGHGTQVTVSS	low polyreactivity
QVQLVESGGGLVQSGGSLRLSSAAYGNTFFPYTIGRYRQAPGKERELVAAISWNGGTTYYADSVKGRFTISRDNAKNTVYLQMISLKPEDSAVYYCAAPRASGYYWGQGTQVTVSS	high polyreactivity
QVQLVESGGGLVQSGGTLRLSWAASGFSFAGNAMGWYRLAPGKERELVAVISKRGGPTYYADSVKGRFTFSRDNAKNTVDLQMNSLKPEDTAVYYCAADSGGPGYAMDYWGQGTEVTVSS	high polyreactivity
QVQLVESGGGLVQSVGSLRLSCAASGRSFWINTMGWYRQAPGKERELLAAITSGGSTKYADSVKGRFTISRDNAKNTVYFQMNSLKPEDCAVYYCARRFRPNDVWPSHRGYGYWGQGTQVSVSS	low polyreactivity
QVQLVESGGGLVQTGGSLRLSCAASGSIYGEYAMGWYRQSPGKEREFVADITWSDGSTYYADSVKGRFTISRDNAKNTVYLQMNSLKPEDTAVYYCAADSVLDRQVLYLWPWYLGDYWGQGTQVTVSS	low polyreactivity
QVQLVESGGGLVQTGGSLRLSCAASGSTFYYYAMGWYRQAPGKERELVAGISWGGGSTYYADSVKGRFTISRDNAKNTVYLQMNSLKPEDTAVYYCNALNPNSYDYWGQGTLVTVSS	low polyreactivity
QVQLVESGGGLVQVGGSLRLSCAASGFTFYDYAMGWYRQAPGKERELVAAISRGGSTYYADSVKGRFTISRDNAKNTVYLQINSLIPEDTAVYYCNARPTRIYHGMGYWGQGTQVTVSS	low polyreactivity
QVQLVESGGGLVQVGGSLRLSCAASGRTFWWYAMGWYRQAPGKERELVAAISRGSTNYADSVKGRFTISRDNAKNTVYLQMNSLKPEDTAVYYCNAVSLYQSHDYDYWGQGTQVTVSS	low polyreactivity
QVQLVESGGGLVRAGGSLRLSCAASGFIFTSYVMGWYRQAPGKERELVAAITSGNSTYYADSVKGRFTISRDNAKNTVYLQMNSLKPEDTAVYYCTADSYHTYYYWYDYWGLGTQVTVSS	low polyreactivity
QVQLVESGGGLVRAGGSLRLSCAASGRIFHGNAMGWYRQAPGKERELVAAITWGGTRTYYADSVKGRFTISRDNAKNTVYLQMNSLKPEDTAVYYCAKAGTGFYNSWWEDYWGQGTQVTVSS	low polyreactivity
QVQLVESGGGRVQAGGSLRLSCAASGSIFTTYTMGWDRQAPGKESEWVAAITSSSGSTYYADSVKGRFTISRDNAKNTVYLQMNSLKPEDTAVYYCAARGYFDFSRYDSWGHGTQVTVSS	low polyreactivity
QVQLVESGGGRVQAGGTHRLRSAASGFTFRQYAMGWYRPAPGKERELLAAISRSGSRTYYADSVKRRFTISRDNAKHTVYLQMNCLKPEDTAVYYCYAVFSTFTGEYYWGHGTQVTVSS	high polyreactivity
QVQLVESGGGSVQAGGSLRLSCAASGFNFVYYAMGWYRQAPGKERELVAAITWSGGSTYADSVKGRFTISRDNAKNTVYLQMNSLKPEDTAVYYCAAEYDISSGYGFDFDYWGQGTQVTVSS	low polyreactivity
QVQLVESGGGVIQAGGSLRLSCAASGRTFYRNTMGWYRQAPGKERELVASISRGGRTNYADSVKGRFTISRDNAKNTVYLQMNSLKREDTAVYYCAKQTSYGGIIRYYASCYGYWGQGTQVTVSS	high polyreactivity
QVQLVESGGGVLQAGGSLRLSCAASGRIFYRYPMGWYRKAPGKVRELVAAISGSVGSTYADSVKGRLTISRDNAKNTVYLQMKSMKPEDTAVYYFDRETYRRYGAYDYWGQGTQVTVSS	low polyreactivity

Sequence	polyreactivity (PSR sort gate)
QVQLVESGGGVQAGCSLRLSCAASGRTFVPYGMGWYRQAPGKERELVAAISSIGDSTSYADSVKGRFTISRDNAKNTVYLQMNSLKPEDSAVYYCADVTWYDEYDSWGKGTQVTVSS	low polyreactivity
QVQLVESGGGVVHAGGSLRLSCAASGLIFRYYAVGGYRPAPGKERELVARISTRGGSTYYADSVKGRFTISRDNAKNTVYLPMNSLKPEDTAVYYCAAVNGLYYHKYGYYWGQGTQVTVSS	high polyreactivity
QVQLVESGGGVVQAGGRLRLSCAASGFILGYNDMGWYRPAPGKERELVAAISSSGGSTYYADSVKGRFTISRDNAKNTVYLQMNSLKPEDTAVYYCGLPYQTSYGEYDYWGQGTQVTVSS	low polyreactivity
QVQLVESGGGVVQAGGRLRLSCSASGRTFPWYAMGWSRQEPGKEREVVAAITQSGGSTYYADSVKGRFTISRDNANNTVYLQMNSLKPEDTAGFYCAVASVNTVFYGQDHYYYDYGYWGQGTHVTVSS	low polyreactivity
QVQLVESGGGVVQAGGSLRLICAATGSIFGYAMGWYRQAPGKERELVGAISFSGVSTYYADSVMGRFTISRDNAKNTVYLEMNSLKPEDTAVYYSNAYSDGDEDYWGQGTQGTVSS	low polyreactivity
QVQLVESGGGVVQAGGSLRLRCAASGRTFGQNVMGWYRQAPGKERELVAAISWSGARTYYADSVKGRFTISRDNVKNTVYLQMNSLNPEDTAVYYCNAPPYAYYGMYYWGQGTQVTVSS	high polyreactivity
QVQLVESGGGVVQAGGSLRLSCAASGFIFNAYAMGSYRQAPGNERELVAAINTSGGRTNYADSVKGRFTISRDNAKNTVYLQMNSLKPEDTAVYYCAARNRFGGNYWGQGTQVTVSS	high polyreactivity
QVQLVESGGGVVQAGGSLRLSCAASGFISKLYAMGWYRQAPGKEREMVAAISSSGTSTYYADSVKGRFTISRDHANNTVYLQMNSLKPEDTAVYYCNARWYVRAYEYDYWGQGTQVTVSS	low polyreactivity
QVQLVESGGGVVQAGGSLRLSCAASGFTFGVYAMRGYRQAPGKERELVAAISSRGGSTYYADSVKGRFTISRDNPTNPVYLQMNSLKPEDTAVYYCAKRLGNTVGKDDYWGQGTQVTVSS	low polyreactivity
QVQLVESGGGVVQAGGSLRLSCAASGFTYVYNAIGWYRQAPGKDMELVATISWRGGSTYADSVKGRFTISRDNAKNTVYLQINSRKPEDTAIYYCNAASRVSQAMDYWGQGTQVTVSS	high polyreactivity
QVQLVESGGGVVQAGGSLRLSCAASGITFGWDAMGWYRQAPGKERELVASISSSGSTNYADSVKGRFTISRDNAKNTVYLQMNSLKPEDTAVYYCNKDYLLRHYYIYVIEGDYWGQGTQVTVSS	low polyreactivity
QVQLVESGGGVVQAGGSLRLSCAASGITFRSYLMGWYRQAPGKEREFVAAITGSAGSTYYADSVKGRFTISRDNAKTTVYLQINSLKAEDTAVYYCAARVRYVNPKYYYLGQGTQVTVSS	high polyreactivity
QVQLVESGGGVVQAGGSLRLSCAASGITIEANAMGLYRQAPGKERELVAAIDRSGGSKYYADSVKGRFTISRDNAKNTVYLQMNSLKPEDTAVYYCAADGRASVGGLGDDYWGQGTQVTVSS	low polyreactivity
QVQLVESGGGVVQAGGSLRLSCAASGRIFDLYAMGWYRQAPGKERELVATISGSGGSTYYADSVKGRFTISRDNAKNTVYLQMNSLKPEDTAVYYCAAVSVSSWYDYWGQGTQVTVSS	low polyreactivity
QVQLVESGGGVVQAGGSLRLSCAASGRIFGPNDMGWYRQAPGKGRELVAAITDSGDITYYADSVKGRFTISRDTAKNTVNVQMNCLKPEDTAVNYFAADHTYENEYRGQGTQVTVSS	low polyreactivity
QVQLVESGGGVVQAGGSLRLSCAASGRIFYGNAMGWYRQAPGKERELVAAISSGTSTNYADSVKGRFTISRDNAKNTVYLQMTSLKPEDTAVYYCAAGSYSRYLYSLYFDFDYWGQGTQVTVSS	low polyreactivity
QVQLVESGGGVVQAGGSLRLSCAASGSIFFLYAMGWSRQATGKEREFVAAITGTADSTYYADSVKGRFTISRDDAKNTVYLQMNSLKPEDTAVYYCATDYWSSVKLDDYWGQGTQVTVSS	low polyreactivity
QVQLVESGGGVVQAGGSLRLSCAASGSTFGRYAMGWYRQAPGKERELVAAISWSGGSTYYADSVKGRFTISRDNAKNTVYLQMNSLKPEDTAVYYCNKYWRGSSSRDDYWGQGTQVTLSS	high polyreactivity
QVQLVESGGGVVQAGGSLRLSCAASGSTFGYYTMGWNRQAPGKERELVAAISRSGCRTYYADSVKGRFTISRDNAMNAVYLHMTSLKPDYTAVYYCNADGTRYAGDDYWGQGSQVTVSS	high polyreactivity
QVQLVESGGGVVQAGGSLRLSCAASGSTSYFNVIGWYRPAPGKERELVAAISWSGGSTYADSVKGRFTISRDNAKNTVYLQMNSLKREDTAVYYCNKDYGYVQLRFSGPGYYWGQGTQVTVSS	low polyreactivity
QVQLVESGGGVVQAGGSLRLSCAASGTIFYENAMGWYRQAPGKEREFVATIDLIGDRTYYADSVKGRFTISRDNAKNTVYLQMNSLKPEDTAVYYCAAERVGVFFRYDYWGQGTQVTVSS	low polyreactivity
